PMC12148588 (eBioMedicine, 2025)

Molecular target: T1, SARS-CoV-2 RBD of the VOC Delta (Acro Biosystems SPD-C82Ed-25) (SARS-CoV-2, VOC Delta (B.1.617.2), strain)
T1 construct: source: bought: Acro Biosystems
Assay: SPR; Biacore 8K+, […]; 10 mM HEPES pH 7.4, 150 mM NaCl, 3 mM EDTA, 0.05% Tween 20; […]
Conditions: both partners purified

B1: MB025_A09Lgl (antibody, V domains shown)
VH: EVQLVESGGGLVQPGGSLRLSCAASGFTVSSNYMSWVRQAPGKGLEWVSVIYSGGSTYYADSVKGRFTISRHNSKNTLYLQMNSLRAEDTAVYYCARGVDYRTNRTEGGAFDIWGQGTMVTVSS
VL: QSALTQPASVSGSPGQSITISCTGTSSDVGSYNLVSWYQQHPGKAPKLMIYEGSKRPSGVSNRFSGSKSGNTASLTISGLQAEDEADYYCCSYAGSSTWMFGGGTKLTVL
Kd: 731 nM
